Reference: patent publication US20230023093A1 (University of Pennsylvania, published 2023)

B1: HIV-1 Env Fab (VRC01 based Fab generated from pHIV-1 Env Fab) (Fab, V domains shown)
VH: QVQLVQSGGQMKKPGESMRISCRASGYEFIDCTLNWIRLAPGKRPEWMGWLKPRGGAVNYARPLQGRVTMTRDVYSDTAFLELRSLTVDDTAVYFCTRGKNCDYNWDFEHWGRGTPVIVSS
VL: QIVLTQSPGTLSLSPGETAIISCRTSQYGSLAWYQQRPGQAPRLVIYSGSTRAAGIPDRFSGSRWGPDYNLTISNLESGDFGVYYCQQYEFFGQGTKVQVDI
B2: CHIKV-Env-Fab (Fab, V domains shown)
VH: QVQLVQSGSELKKPGASVKVSCKASGYTLTRYAMTWVRQAPGQGLEWMGWINTYTGNPTYVQGFTGRFVFSLDTSVSTAFLHITSLKAEDTAVYFCAREGGARGFDYWGQGTLVTVSS
VL: QSVLTQPPSVSGAPGQRVTISCTGSSSNIGASHDVHWYQQLPGTAPTLLIYVNSNRPSGVPDRFSGSKSGTSASLAITGLQAEDEADYYCQSYDSNLSGSAVFGGGTKLTVLG

Key:
[1] = target: HIV-1 Env of Bal26 (clade B, Tier 1) on pseudotyped virus (HIV-1 clade B, Bal26); experiment: cell-based or functional assay
[2] = target: HIV-1 Env of SF162S (clade B, Tier 1) on pseudotyped virus (HIV-1 clade B, SF162S); experiment: cell-based or functional assay
[3] = target: HIV-1 Env of the primary isolate Q23Env17 (pOpt-Env-A) (HIV-1 clade A, Q23Env17); experiment: cell-based or functional assay
[4] = target: T1, HIV-1 Env of clade B strain SF162 on transfected 293T cells (HIV-1 clade B, SF162, UniProt P19550 32-847); experiment: binding of day 6 mouse sera to Env expressed in transfected 293T cells (FIG. 12)
T1 construct: whole, on cells

[5] = target: recombinant HIV-1 Env (subtype B; MN) protein (HIV-1 subtype B, MN, UniProt P05877 32-513); experiment: binding ELISA, serial dilutions of day 14 mouse sera

Binder	plateau percent neutralization (TZM-Bl luciferase assay, sera 1:50) [1] [%]	plateau percent neutralization (TZM-Bl luciferase assay, sera 1:50) [2] [%]	plateau percent neutralization (TZM-Bl luciferase assay, sera 1:50) [3] [%]	binding result [4]	binding result [5]
B1	~62	~70	~60	binds	–
B2	–	–	–	–	no binding
